Test results reported in US20100196266A1 (published 2010).

Tests used:
human CD20 on cells = target: T1, human CD20 on cells (human, UniProt P11836 1-297); assay: indirect flow cytometry, Namalwa cells, FITC-GAM; none 2.91
T1 construct: whole, on cells
T1 sequence (looked up): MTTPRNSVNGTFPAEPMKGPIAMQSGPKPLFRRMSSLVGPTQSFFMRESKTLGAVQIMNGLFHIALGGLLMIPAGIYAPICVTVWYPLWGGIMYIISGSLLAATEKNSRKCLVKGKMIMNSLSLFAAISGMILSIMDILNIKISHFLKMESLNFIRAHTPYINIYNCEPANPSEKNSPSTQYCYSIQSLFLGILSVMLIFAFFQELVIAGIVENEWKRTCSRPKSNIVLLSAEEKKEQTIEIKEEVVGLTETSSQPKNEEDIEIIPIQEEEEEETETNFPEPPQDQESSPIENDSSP

human CD74 on cells [1] = target: T2, human CD74 on cells (human, UniProt P04233 1-296); assay: flow cytometry, GDM-1 (AML) cells; no mAb 16.8
T2 construct: whole, on cells
T2 sequence (looked up): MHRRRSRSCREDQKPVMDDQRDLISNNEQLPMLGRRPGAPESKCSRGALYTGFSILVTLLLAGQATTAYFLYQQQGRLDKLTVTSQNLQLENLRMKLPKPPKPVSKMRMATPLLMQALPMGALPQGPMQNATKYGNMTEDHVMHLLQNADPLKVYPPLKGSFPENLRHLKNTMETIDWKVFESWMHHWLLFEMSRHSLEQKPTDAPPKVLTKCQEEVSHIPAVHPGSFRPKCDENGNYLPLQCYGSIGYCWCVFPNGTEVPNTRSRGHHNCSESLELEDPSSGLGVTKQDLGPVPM

human CD74 on cells [2] = target: T2, human CD74 on cells; assay: flow cytometry, MN60 (ALL) cells; no mAb 8.1
human CD74 on cells [3] = target: T2, human CD74 on cells; assay: flow cytometry, Kasumi-3 (AML) cells; no mAb 9.6
human CD74 on cells [4] = target: T2, human CD74 on cells; assay: flow cytometry, HC-1 (hairy cell leukemia) cells; no mAb 4.8
human CD74 on cells [5] = target: T2, human CD74 on cells; assay: flow cytometry, Jeko-1 (MCL) cells; no mAb 14.3
human CD74 on cells [6] = target: T2, human CD74 on cells; assay: flow cytometry, REH (ALL) cells; no mAb 3.9
human CD74 on cells [7] = target: T2, human CD74 on cells; assay: flow cytometry, WAC (CLL) cells; no mAb 15.8
human CD74 on cells [8] = target: T2, human CD74 on cells; assay: flow cytometry, Granta-519 (MCL) cells; no mAb 15.3
human CD74 on cells [9] = target: T2, human CD74 on cells; assay: flow cytometry, Kasumi-1 (AML) cells; no mAb 18.2
human CD74 on cells [10] = target: T2, human CD74 on cells; assay: flow cytometry, RS4;11 (ALL) cells; no mAb 6.4
human CD74 on cells [11] = target: T2, human CD74 on cells; assay: flow cytometry, MEC-1 (CLL) cells; no mAb 4.7
human CD74 on cells [12] = target: T2, human CD74 on cells; assay: flow cytometry, K562 (CML) cells; no mAb 3.2
human CD74 on cells [13] = target: T2, human CD74 on cells; assay: indirect flow cytometry, Namalwa cells, FITC-GAM; none 2.91
human CD74 on cells [14] = target: T2, human CD74 on cells; assay: flow cytometry, 697 (ALL) cells; no mAb 4.9
[15] = target: T3, human leukocyte antigen-DR (HLA-DR) on human lymphoma and leukemia cell lines and human lymphocytes (human); assay: flow cytometry, GDM-1 (AML) cells; no mAb 16.8
[16] = target: T3, human leukocyte antigen-DR (HLA-DR) on …; assay: flow cytometry, MN60 (ALL) cells; no mAb 8.1
[17] = target: T3, human leukocyte antigen-DR (HLA-DR) on …; assay: flow cytometry, Kasumi-3 (AML) cells; no mAb 9.6
[18] = target: T3, human leukocyte antigen-DR (HLA-DR) on …; assay: flow cytometry, HC-1 (hairy cell leukemia) cells; no mAb 4.8
[19] = target: T3, human leukocyte antigen-DR (HLA-DR) on …; assay: flow cytometry, Jeko-1 (MCL) cells; no mAb 14.3
[20] = target: T3, human leukocyte antigen-DR (HLA-DR) on …; assay: flow cytometry, REH (ALL) cells; no mAb 3.9
[21] = target: T3, human leukocyte antigen-DR (HLA-DR) on …; assay: flow cytometry, WAC (CLL) cells; no mAb 15.8
[22] = target: T3, human leukocyte antigen-DR (HLA-DR) on …; assay: flow cytometry, Granta-519 (MCL) cells; no mAb 15.3
[23] = target: T3, human leukocyte antigen-DR (HLA-DR) on …; assay: flow cytometry, Kasumi-1 (AML) cells; no mAb 18.2
[24] = target: T3, human leukocyte antigen-DR (HLA-DR) on …; assay: flow cytometry, RS4;11 (ALL) cells; no mAb 6.4
[25] = target: T3, human leukocyte antigen-DR (HLA-DR) on …; assay: flow cytometry, MEC-1 (CLL) cells; no mAb 4.7
[26] = target: T3, human leukocyte antigen-DR (HLA-DR) on …; assay: flow cytometry, K562 (CML) cells; no mAb 3.2
[27] = target: T3, human leukocyte antigen-DR (HLA-DR) on …; assay: indirect flow cytometry, Namalwa cells, FITC-GAM; none 2.91
[28] = target: T3, human leukocyte antigen-DR (HLA-DR) on …; assay: flow cytometry, 697 (ALL) cells; no mAb 4.9
human CD22 on cells [29] = target: T4, human CD22 on cells (human, UniProt P20273 20-847); assay: flow cytometry, GDM-1 (AML) cells; no mAb 16.8
T4 construct: whole, on cells

human CD22 on cells [30] = target: T4, human CD22 on cells; assay: flow cytometry, MN60 (ALL) cells; no mAb 8.1
human CD22 on cells [31] = target: T4, human CD22 on cells; assay: flow cytometry, Kasumi-3 (AML) cells; no mAb 9.6
human CD22 on cells [32] = target: T4, human CD22 on cells; assay: flow cytometry, HC-1 (hairy cell leukemia) cells; no mAb 4.8
human CD22 on cells [33] = target: T4, human CD22 on cells; assay: flow cytometry, Jeko-1 (MCL) cells; no mAb 14.3
human CD22 on cells [34] = target: T4, human CD22 on cells; assay: flow cytometry, REH (ALL) cells; no mAb 3.9
human CD22 on cells [35] = target: T4, human CD22 on cells; assay: flow cytometry, WAC (CLL) cells; no mAb 15.8
human CD22 on cells [36] = target: T4, human CD22 on cells; assay: flow cytometry, Granta-519 (MCL) cells; no mAb 15.3
human CD22 on cells [37] = target: T4, human CD22 on cells; assay: flow cytometry, Kasumi-1 (AML) cells; no mAb 18.2
human CD22 on cells [38] = target: T4, human CD22 on cells; assay: flow cytometry, RS4;11 (ALL) cells; no mAb 6.4
human CD22 on cells [39] = target: T4, human CD22 on cells; assay: flow cytometry, MEC-1 (CLL) cells; no mAb 4.7
human CD22 on cells [40] = target: T4, human CD22 on cells; assay: flow cytometry, K562 (CML) cells; no mAb 3.2
human CD22 on cells [41] = target: T4, human CD22 on cells; assay: indirect flow cytometry, Namalwa cells, FITC-GAM; none 2.91
human CD22 on cells [42] = target: T4, human CD22 on cells; assay: flow cytometry, 697 (ALL) cells; no mAb 4.9

B1: 1F5 (murine anti-CD20 mAb) (antibody, V domains shown)
VH: QVQLRQPGAELVKPGASVKMSCKASGYTFTSYNMHWVKQTPGQGLEWIGAIYPGNGDTSYNQKFKGKATLTADKSSSTAYMQLSSLTSEDSAVYYCARSHYGSNYVDYFDYWGQGTTLTVSS
VL: DIVLSQSPAILSASPGEKVTMTCRASSSLSFMHWYQQKPGSSPKPWIYATSNLASGVPARFSGSGSGTSYSLTISRVEAEDAATYFCHQWSSNPLTFGAGTKLELK
Q: How did the “GEO MEAN Fluorescence” value (human CD20 on cells) turn out when B1 was run?
A: 3.83

B2: murine LL1 (anti-human CD74) (antibody, V domains shown)
VH: QIQLVQSGPELKKPGETVKVTCKTSGYTFTNYGVNWIKQTPGEGLQWMGWINPNTGEPTFDDDFKGRFAFSLESSASTAFLQISNLKNEDMGTYFCSRSRGKNEAWFAYWGQGTLVTVSE
VL: DVVMTQTPLSLPVSLGDQASISCRSSQSLVHRNGNTYLHWYLQKPGQSPKLLIYTVSNRFSGVPDRFSGSGSGTDFTLKISRVEAEDLGLYFCSQSSHVPPTFGAGTKLEI
Q: How did the “mean FL” value (human CD74 on cells [1]) turn out when B2 was run?
A: 69.5

Q: And the “mean FL” value (human CD74 on cells [2])?
A: 25.9

Q: What about the “mean FL” value (human CD74 on cells [3]) of the same binder?
A: 18.4

Q: And the “mean FL” value (human CD74 on cells [4])?
A: 36.7

Q: And the “mean FL” value (human CD74 on cells [5])?
A: 32.7

Q: What about the “mean FL” value (human CD74 on cells [6]) of the same binder?
A: 61.1

Q: What about the “mean FL” value (human CD74 on cells [7]) of the same binder?
A: 43.6

Q: What about the “mean FL” value (human CD74 on cells [8]) of the same binder?
A: 50.8

Q: What about the “mean FL” value (human CD74 on cells [9]) of the same binder?
A: 23.8

Q: And the “mean FL” value (human CD74 on cells [10])?
A: 24.3

Q: And the “mean FL” value (human CD74 on cells [11])?
A: 44.7

Q: And the “mean FL” value (human CD74 on cells [12])?
A: 7

Q: What about the “GEO MEAN Fluorescence” value (human CD74 on cells [13]) of the same binder?
A: 17.3

Q: And the “mean FL” value (human CD74 on cells [14])?
A: 20.6

B3: murine monoclonal antibody L243 (mL243) (antibody, V domains shown)
VH: QIQLVQSGPELKKPGETVKISCKASGFTFTNYGMNWVKQAPGKGLKWMGWINTYTREPTYADDFKGRFAFSLETSASTAYLQINNLKNEDTAKYFCARDITAVVPTGFDYWGQGTTLTVSS
VL: DIQMTQSPASLSVSVGETVTITCRASENIYSNLAWYRQKQGKSPQLLVFAASNLADGVPSRFSGSGSGTQYSLKINSLQSEDFGDYYCQHFWTTPWAFGGGTNLEIKR
notes: Murine IgG2a from hybridoma ATCC HB55; also called murine L243; mL234
Q: What does the source list for B3?
A: mean FL [15]: 1070; mean FL [16]: 1220; mean FL [17]: 565; mean FL [18]: 515; mean FL [19]: 1900; mean FL [20]: 2090; mean FL [21]: 788; mean FL [22]: 2110; mean FL [23]: 24; mean FL [24]: 152; mean FL [25]: 1700; mean FL [26]: 4.9; GEO MEAN Fluorescence [27]: 595; mean FL [28]: 259

B4: murine LL2 (anti-human CD22) (antibody, V domains shown)
VH: QVQLQESGAELSKPGASVKMSCKASGYTFTSYWLHWIKQRPGQGLEWIGYINPRNDYTEYNQNFKDKATLTADKSSSTAYMQLSSLTSEDSAVYYCARRDITTFYWGQGTTLTVSS
VL: DIQLTQSPSSLAVSAGENVTMSCKSSQSVLYSANHKNYLAWYQQKPGQSPKLLIYWASTRESGVPDRFTGSGSGTDFTLTISRVQVEDLAIYYCHQYLSSWTFGGGTKLEIKR
Q: With B4 as the binder, how does the “mean FL” value (human CD22 on cells [29]) read?
A: 28.5

Q: And the “mean FL” value (human CD22 on cells [30])?
A: 17.1

Q: And the “mean FL” value (human CD22 on cells [31])?
A: 13.9

Q: What about the “mean FL” value (human CD22 on cells [32]) of the same binder?
A: 17.8

Q: And the “mean FL” value (human CD22 on cells [33])?
A: 25

Q: And the “mean FL” value (human CD22 on cells [34])?
A: 16.8

Q: And the “mean FL” value (human CD22 on cells [35])?
A: 20.1

Q: What about the “mean FL” value (human CD22 on cells [36]) of the same binder?
A: 28.6

Q: And the “mean FL” value (human CD22 on cells [37])?
A: 20.9

Q: And the “mean FL” value (human CD22 on cells [38])?
A: 20.9

Q: And the “mean FL” value (human CD22 on cells [39])?
A: 49

Q: And the “mean FL” value (human CD22 on cells [40])?
A: 4.3

Q: What about the “GEO MEAN Fluorescence” value (human CD22 on cells [41]) of the same binder?
A: 10.5

Q: And the “mean FL” value (human CD22 on cells [42])?
A: 15.9
